Data taken from patent publication US9266964.
Substitutions are numbered along the chain they refer to. Each block holds one binder with its values, some of them ahead of it.

Legend:
human plasma kallikrein [1] = target: T1, human plasma kallikrein (human, UniProt P03952 20-390; P03952 391-638); assay: Ki,app as an IgG, steady state enzyme kinetics, inhibition of human pKal
T1 construct: two disulfide linked chains; also called pKal; human pKal

human plasma kallikrein [2] = target: T2, human plasma kallikrein (human, UniProt P03952 20-390; P03952 391-638); assay: cell-based or functional assay
human plasma kallikrein [3] = target: T2, human plasma kallikrein; assay: Ki,app, inhibition of human pKal enzyme activity
[4] = target: T3, pKal catalytic domain Mutant 1 (human, UniProt P03952 391-638, limits assumed); assay: apparent Ki (Ki,app), enzyme inhibition, pKal catalytic domain Mutant 1
T3 construct: domain: catalytic domain; Expressed in Pichia pastoris, purified by IMAC; not shown: His tag fusion
Description: (§1) Apparent Inhibition constants (K_{i,app} values) were measured by pre-incubating enzyme and inhibitor solutions prior to initiating the reactions with substrate. Enzyme and inhibitor were pre-incubated for 2 hours at 30° C. in a 96-well plate by adding 10 μL of a 10× enzyme solution and 10 μL of 10× inhibitor solutions to 70 μL of reaction buffer. Reactions were initiated by the addition of 10 μL of a 10× concentrated stock of substrate, and were monitored at 30° C. in a fluorescence plate reader with the excitation and emission wavelengths set at 360 nm/460 nm, respectively. Kinetic data were acquired by the increase in fluorescence, and initial rates for each condition were plotted against the total inhibitor concentration. The data was fit to the following equation for tight binding inhibitors: […]

[5] = target: T4, pKal catalytic domain Mutant 2 (human, UniProt P03952 391-638, limits assumed); assay: apparent Ki (Ki,app), enzyme inhibition, pKal catalytic domain Mutant 2
T4 construct: domain: catalytic domain; Expressed in Pichia pastoris, purified by IMAC; not shown: His tag fusion
Description: as §1

[6] = target: T5, wild type pKal catalytic domain (human, UniProt P03952 391-638, limits assumed); assay: apparent Ki (Ki,app), enzyme inhibition, wild type pKal catalytic domain
T5 construct: domain: catalytic domain; also called WT cat; Domain; not shown: His tag fusion
Description: as §1

[7] = target: T6, human plasma kallikrein (full length, active) (human, UniProt P03952 20-390; P03952 391-638); assay: Ki,app: enzyme inhibition, fluorescent substrate, 2 h pre-incubation at 30 C, tight-binding fit
T6 construct: two disulfide linked polypeptides; also called Full length pKal; pKal
Description: as §1

[8] = target: T7, wild type pKal catalytic domain (human, UniProt P03952 391-638, limits assumed); assay: as above
T7 construct: domain: catalytic domain; The expression in Pichia pastoris with a His tag and IMAC purification is told of the mutants; also called WT cat; Domain; not shown: His tag fusion
Description: as §1

[9] = target: T8, pKal catalytic domain Mutant 1 (human, UniProt P03952 391-638, limits assumed); assay: as above
T8 construct: domain: catalytic domain; Expressed in Pichia pastoris, purified by IMAC; not shown: His tag fusion
Description: as §1

[10] = target: T9, pKal catalytic domain Mutant 2 (human, UniProt P03952 391-638, limits assumed); assay: as above
T9 construct: domain: catalytic domain; Expressed in Pichia pastoris, purified by IMAC; not shown: His tag fusion
Description: as §1

T6 sequence (P03952 20-390, chain 1 of 2): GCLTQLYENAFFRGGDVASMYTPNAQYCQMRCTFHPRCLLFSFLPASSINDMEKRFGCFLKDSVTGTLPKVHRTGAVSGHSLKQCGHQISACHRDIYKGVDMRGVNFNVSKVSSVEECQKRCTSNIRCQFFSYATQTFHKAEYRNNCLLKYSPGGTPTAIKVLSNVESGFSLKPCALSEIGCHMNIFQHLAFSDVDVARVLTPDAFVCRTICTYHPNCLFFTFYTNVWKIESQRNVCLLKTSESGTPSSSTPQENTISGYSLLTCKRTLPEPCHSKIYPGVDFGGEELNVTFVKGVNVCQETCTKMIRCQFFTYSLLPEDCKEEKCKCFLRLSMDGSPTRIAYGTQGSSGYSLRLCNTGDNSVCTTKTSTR
T6 sequence (P03952 391-638, chain 2 of 2): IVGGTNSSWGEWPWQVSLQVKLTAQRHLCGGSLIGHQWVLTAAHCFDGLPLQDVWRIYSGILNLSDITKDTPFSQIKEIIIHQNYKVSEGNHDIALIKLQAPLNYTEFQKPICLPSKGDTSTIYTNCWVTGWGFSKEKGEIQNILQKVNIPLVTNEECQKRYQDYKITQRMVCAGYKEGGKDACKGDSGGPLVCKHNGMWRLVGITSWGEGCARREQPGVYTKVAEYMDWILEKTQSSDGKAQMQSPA

Ki (human plasma kallikrein [1]): 0.2 nM
B1: X69-C09 (IgG) (antibody, V domains shown)
VH: EVQLLESGGGLVQPGGSLRLSCAASGFTFSAYSMIWVRQAPGKGLEWVSYIRPSGGRTTYADSVKGRFTISRDNSKNTLYLQMNSLRAEDTAVYYCARGGLLLWFRELKSNYFDYWGQGTLVTVSS
VL: DIQMTQSPSSLSAFVGDRVTITCRASQPIDNYLNWYHQKPGKAPKLLIYAASRLQSGVPSRLSGSGFGTDFTLTISSLQPEDFGNYYCQQSYTVPYTFGGGTKVEIR
notes: Full length human IgG1; printed HC runs into CH1; also called Parental

Ki (human plasma kallikrein [1]): 2.1 nM
B2: X67-B03 (IgG) (antibody, V domains shown)
VH: B1 VH with F105S
VL: B1 VL
notes: printed HC runs into CH1

Ki (human plasma kallikrein [1]): 3.6 nM
B3: X67-H04 (IgG) (antibody, V domains shown)
VH: B1 VH with F105E
VL: B1 VL
notes: printed HC runs into CH1; also called 559A-X67-H04

Ki (human plasma kallikrein [1]): 0.7 nM
B4: X67-C03 (IgG) (antibody, V domains shown)
VH: B1 VH with F105M
VL: B1 VL
notes: printed HC runs into CH1

Ki (human plasma kallikrein [1]): 1.3 nM
B5: X67-E04 (IgG) (antibody, V domains shown)
VH: B1 VH with F105D
VL: B1 VL
notes: printed HC runs into CH1

Ki (human plasma kallikrein [1]): 8.6 nM
B6: X67-C09 (IgG) (antibody, V domains shown)
VH: B1 VH with F105G
VL: B1 VL
notes: printed HC runs into CH1

Ki (human plasma kallikrein [1]): 0.9 nM
B7: X67-F01 (IgG) (antibody, V domains shown)
VH: B1 VH with F105Q
VL: B1 VL
notes: printed HC runs into CH1

Ki (human plasma kallikrein [1]): 1.3 nM
B8: X67-F10 (IgG) (antibody, V domains shown)
VH: B1 VH with F105T
VL: B1 VL
notes: printed HC runs into CH1

% inhibition at 10 nM (human plasma kallikrein [2]): 96.4%
Ki (human plasma kallikrein [3]): 0.06 nM
B9: M199-A08 (Fab, V domains shown)
VH: EVQLLESGGGLVQPGGSLRLSCAASGFTFSHYIMMWVRQAPGKGLEWVSGIYSSGGITVYADSVKGRFTISRDNSKNTLYLQMNSLRAEDTAVYYCAYRRIGVPRRDEFDIWGQGTMVTVSS
VL: DIQMTQSPSTLSASVGDRVTITCRASQSISSWLAWYQQKPGKAPNLLIYKASTLESGVPSRFSGSGSGTEFTLTISSLQPDDFATYYCQQYNTYWTFGQGTKVEIK

Ki [4]: 0.14 nM
Ki [5]: 5.9 nM
Ki [6]: 0.09 nM
B10: X115-F02 (Fab, V domains shown)
VH: B9 VH
VL: B9 VL with N45K
notes: also called 559A-X115-F02; 559A-X0115-F02

% inhibition at 10 nM (human plasma kallikrein [2]): 95.7%
Ki (human plasma kallikrein [3]): 0.1 nM
B11: M202-H03 (Fab, V domains shown)
VH: B9 VH with Y98F, I101T, R106W, E108D
VL: B9 VL
notes: Tested as Fab; printed HC runs into CH1; Same CDRs as M202-C01, differs at the residue before HV-CDR3 (F for Y)

% inhibition at 10 nM (human plasma kallikrein [2]): 96.3%
Ki (human plasma kallikrein [3]): 0.1 nM
B12: M202-C01 (Fab, V domains shown)
VH: B9 VH with I101T, R106W, E108D
VL: B9 VL
notes: Tested as Fab; printed HC runs into CH1

% inhibition at 10 nM (human plasma kallikrein [2]): 92.3%
Ki (human plasma kallikrein [3]): 0.3 nM
B13: M202-C09 (Fab, V domains shown)
VH: B9 VH with E108D
VL: B9 VL
notes: as for B12

% inhibition at 10 nM (human plasma kallikrein [2]): 95.7%
Ki (human plasma kallikrein [3]): 0.1 nM
B14: M201-A07 (Fab, V domains shown)
VH: B9 VH with I101T
VL: B9 VL
notes: as for B12

% inhibition at 10 nM (human plasma kallikrein [2]): 97.5%
Ki (human plasma kallikrein [3]): 0.2 nM
B15: M202-A12 (Fab, V domains shown)
VH: B9 VH with R99Q, I101T, E108S, D110N
VL: B9 VL
notes: as for B12

Ki [4]: 0.4 nM
Ki [5]: 2.2 nM
Ki [6]: 0.3 nM
B16: X115-G04 (antibody, V domains shown)
VH: B9 VH with I101T
VL: B9 VL with N45K
notes: also called 559A-X115-G04; 559A-X0115-G04

% inhibition at 10 nM (human plasma kallikrein [2]): 93.1%
Ki (human plasma kallikrein [3]): 0.3 nM
B17: M202-B03 (Fab, V domains shown)
VH: B9 VH with I101T, E108D
VL: B9 VL
notes: as for B12

Ki [4]: 0.26 nM
Ki [5]: 2.5 nM
Ki [6]: 0.18 nM
B18: X115-D01 (antibody, V domains shown)
VH: EVQLLESGGGLVQPGGSLRLSCAASGFTFSIYSMHWVRQAPGKGLEWVSSIYPSRGMTWYADSVKGRFTISRDNSKNTLYLQMNSLRAEDTAVYYCAYRRTGIPRRDAFDIWGQGTMVTVSS
VL: B9 VL with N45K
notes: also called 559A-X115-D01; 559A-X0115-D01

% inhibition at 10 nM (human plasma kallikrein [2]): 95.9%
Ki (human plasma kallikrein [3]): 0.1 nM
B19: M200-D03 (Fab, V domains shown)
VH: B9 VH with Y98W, E108S, I111M
VL: B9 VL
notes: as for B12

% inhibition at 10 nM (human plasma kallikrein [2]): 95%
Ki (human plasma kallikrein [3]): 0.4 nM
B20: M202-D09 (Fab, V domains shown)
VH: B9 VH with E108S
VL: B9 VL
notes: as for B12

Ki [4]: 0.23 nM
Ki [5]: 3.7 nM
Ki [6]: 0.16 nM
B21: X115-A03 (antibody, V domains shown)
VH: B9 VH with Y98W, E108S, I111M
VL: B9 VL with N45K
notes: also called 559A-X115-A03; 559A-X0115-A03

Ki [4]: 14 nM
Ki [5]: 20 nM
Ki [6]: 0.22 nM
B22: DX-2922 (antibody, V domains shown)
VH: EVQLLESGGGLVQPGGSLRLSCAASGFTFSHYLMTWVRQAPGKGLEWVSYISPSGGHTIYADSVKGRFTISRDNSKNTLYLQMNSLRAEDTAVYYCARVARGIAARSRTSYFDYWGQGTLVTVSS
VL: EIVLTQSPGTLSLSPGERATLSCRTSQFVNSNYLAWYQQKPGQAPRLLIYGASSRATGIPDRFSGSGSGTDFTLTISRLEPEDFAVYYCQQSSRTPWTFGQGTKVEIK
notes: also called X101-A01; 559A-X0101-A01

Ki [7]: 0.2 nM
Ki [8]: 0.22 nM
Ki [9]: 14 nM
Ki [10]: 20 nM
B23: DX-2922 (antibody, V domains shown)
VH: B22 VH
VL: B22 VL
notes: Germlined IgG produced in CHO cells; only the variable domains are printed; also called X101-A01; 559A-X0101-A01

Ki [4]: 4.7 nM
Ki [5]: 47 nM
Ki [6]: 0.13 nM
B24: X115-B07 (antibody, V domains shown)
VH: B22 VH with R98M, A100G, R101Q, A104R, A105G, D113A, Y114Q
VL: B22 VL
notes: also called 559A-X115-B07; 559A-X0115-B07

Ki [7]: 0.25 nM
B25: X115-D05 (antibody, V domains shown)
VH: B22 VH with H31D, L33M, T35A, Y50S, S52V, I59H
VL: B22 VL
notes: only variable domains given; also called 559A-X115-D05; 559A-X0115-D05

Ki [7]: 0.34 nM
B26: X115-E09 (antibody, V domains shown)
VH: B22 VH with R101Q, Y111S, F112V, Y114Q
VL: B22 VL
notes: only variable domains given; also called 559A-X115-E09; 559A-X0115-E09

Ki [7]: 0.35 nM
B27: X115-H06 (antibody, V domains shown)
VH: B22 VH with R101Q, A104S
VL: B22 VL
notes: only variable domains given; also called 559A-X115-H06; 559A-X0115-H06

Ki [7]: 0.33 nM
Ki [9]: 4.7 nM
Ki [10]: 47 nM
B28: X115-B07 (antibody, V domains shown)
VH: B22 VH with R98M, A100G, R101Q, A104R, A105G, D113A, Y114Q
VL: B22 VL
notes: only variable domains given; also called 559A-X115-B07; 559A-X0115-B07
